Results on twelve molecules are retold here after publication PMC3946280, “Crystal Structures of the Novel Cytosolic 5′-Nucleotidase IIIB Explain Its Preference for m^7GMP” (PLoS ONE, 2014).

One series concerns the target T1, HscN-IIIA (Homo sapiens, UniProt Q9H0P0).
T1 construct: gene NT5C3A
The note with it: 37 °C; preincubated with 5 mM DTT.

In series [1] the target is T2, DmcN-IIIB (Drosophila melanogaster, UniProt Q9W197).
T2 construct: gene cN-IIIB; full length 1-319; His6-SUMO fusion from pET-SUMOadapt in E. coli Rosetta 2(DE3), tag cleaved (stated for crystallization)
T2 sequence (Q9W197 1-319): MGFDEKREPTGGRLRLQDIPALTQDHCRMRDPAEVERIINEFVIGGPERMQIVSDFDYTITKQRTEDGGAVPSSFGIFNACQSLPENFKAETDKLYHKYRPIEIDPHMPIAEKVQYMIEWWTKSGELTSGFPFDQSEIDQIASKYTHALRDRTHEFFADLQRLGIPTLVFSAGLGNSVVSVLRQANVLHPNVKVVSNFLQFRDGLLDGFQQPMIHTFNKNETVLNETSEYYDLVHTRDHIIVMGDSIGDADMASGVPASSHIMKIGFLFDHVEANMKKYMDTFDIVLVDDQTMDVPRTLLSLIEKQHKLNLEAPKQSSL
The series can be described thus: X-ray crystal structure, […] Å. The note with it: co-crystallized with MgF3− and Mg2+; pH 7.5; active site. It counts as binding.

Series [2] concerns the target T2, DmcN-IIIB. The series can be described thus: X-ray crystal structure, […] Å. Particulars: co-crystallized, no MgF3− density; pH 7.5; active site. The format is binding.
Substrate in the series “purified protein”: Nc1ccn([C@@H]2O[C@H](COP(=O)(O)O)[C@@H](O)[C@H]2O)c(=O)n1
In words: purified protein. The note with it: 37 °C, preincubated with 5 mM DTT.

Substrate in series [3]: C[n+]1cn([C@@H]2O[C@H](COP(=O)(O)O)[C@@H](O)[C@H]2O)c2nc(N)[nH]c(=O)c21
The series can be described thus: colorimetric malachite green phosphate assay. It counts as biochemical, Homo sapiens. The note with it: 37 °C, preincubated with 5 mM DTT.

Substrate in series [4]: C[n+]1cn([C@@H]2O[C@H](COP(=O)(O)O)[C@@H](O)[C@H]2O)c2nc(N)[nH]c(=O)c21
In words: colorimetric malachite green phosphate assay. The format is biochemical, Drosophila melanogaster. The note with it: 25 °C.

Substrate in series [5]: Nc1ccn([C@@H]2O[C@H](COP(=O)(O)O)[C@@H](O)[C@H]2O)c(=O)n1
The series can be described thus: colorimetric malachite green phosphate assay. It counts as biochemical, Drosophila melanogaster. The note with it: 25 °C.

As to `Nc1ccn([C@@H]2O[C@H](COP(=O)(O)O)[C@@H](O)[C@H]2O)c(=O)n1` [CMP], the Km at HscN-IIIA is 80 µM.
Still for that read-out and setting: in the case of `C[n+]1cn([C@@H]2O[C@H](COP(=O)(O)O)[C@@H](O)[C@H]2O)c2nc(N)[nH]c(=O)c21` [m^7GMP] it was 15 µM.
As to `C[n+]1cn([C@@H]2O[C@H](CO)[C@@H](O)[C@H]2O)c2nc(N)[nH]c(=O)c21` [7-methylguanosine], at DmcN-IIIB [1], the “X-ray crystal structure, 1.65 Å” value is reported as “crystal structures of ^DmcN-IIIB bound to 7-methylguanosine or cytidine have been deposited”.
For `Nc1ccn([C@@H]2O[C@H](CO)[C@@H](O)[C@H]2O)c(=O)n1` [cytidine], the “X-ray crystal structure, 2.05 Å” value at DmcN-IIIB [2] is “crystal structures of ^DmcN-IIIB bound to 7-methylguanosine or cytidine have been deposited”.

B1: HscN-IIIB (Homo sapiens) (protein)
chain: MAEEVSTLMKATVLMRQPGRVQEIVGALRKGGGDRLQVISDFDMTLSRFAYNGKRCPSSYNILDNSKIISEECRKELTALLHHYYPIEIDPHRTVKEKLPHMVEWWTKAHNLLCQQKIQKFQIAQVVRESNAMLREGYKTFFNTLYHNNIPLFIFSAGIGDILEEIIRQMKVFHPNIHIVSNYMDFNEDGFLQGFKGQLIHTYNKNSSACENSGYFQQLEGKTNVILLGDSIGDLTMADGVPGVQNILKIGFLNDKVEERRERYMDSYDIVLEKDETLDVVNGLLQHILCQGVQLEMQGP
Turning to B1, in the series “purified protein”, the Km came to 79 µM, the catalytic constant (kcat) amounted to 7 s⁻¹ and the kcat/Km was 87100 M⁻¹ s⁻¹. In series [3], the Km was found to be 8 µM, the kcat was determined as 0.5 s⁻¹ and the kcat/Km was found to be 64500 M⁻¹ s⁻¹.

B2: DmcN-IIIB (Drosophila melanogaster) (protein)
chain: MGFDEKREPTGGRLRLQDIPALTQDHCRMRDPAEVERIINEFVIGGPERMQIVSDFDYTITKQRTEDGGAVPSSFGIFNACQSLPENFKAETDKLYHKYRPIEIDPHMPIAEKVQYMIEWWTKSGELTSGFPFDQSEIDQIASKYTHALRDRTHEFFADLQRLGIPTLVFSAGLGNSVVSVLRQANVLHPNVKVVSNFLQFRDGLLDGFQQPMIHTFNKNETVLNETSEYYDLVHTRDHIIVMGDSIGDADMASGVPASSHIMKIGFLFDHVEANMKKYMDTFDIVLVDDQTMDVPRTLLSLIEKQHKLNLEAPKQSSL
notes: full length 1-319; His6-SUMO fusion from pET-SUMOadapt in E. coli Rosetta 2(DE3), tag cleaved (stated for crystallization)
For B2, in series [4], the Km turned out to be 12 µM, the kcat was 4.8 s⁻¹ and the kcat/Km turned out to be 403000 M⁻¹ s⁻¹. In series [5], the Km is recorded as 48 µM, the kcat worked out at 12 s⁻¹ and the kcat/Km is 242000 M⁻¹ s⁻¹.

B3: DmcN-IIIB (Drosophila melanogaster; G76N) (protein)
chain: MGFDEKREPTGGRLRLQDIPALTQDHCRMRDPAEVERIINEFVIGGPERMQIVSDFDYTITKQRTEDGGAVPSSFNIFNACQSLPENFKAETDKLYHKYRPIEIDPHMPIAEKVQYMIEWWTKSGELTSGFPFDQSEIDQIASKYTHALRDRTHEFFADLQRLGIPTLVFSAGLGNSVVSVLRQANVLHPNVKVVSNFLQFRDGLLDGFQQPMIHTFNKNETVLNETSEYYDLVHTRDHIIVMGDSIGDADMASGVPASSHIMKIGFLFDHVEANMKKYMDTFDIVLVDDQTMDVPRTLLSLIEKQHKLNLEAPKQSSL
notes: as for B2
Take B3: in series [4] (variant FNWW), the Km amounted to 2 µM, the kcat is 1.1 s⁻¹ and the kcat/Km is 545000 M⁻¹ s⁻¹. Besides, in series [5] (variant FNWW), the Km turned out to be 51 µM, the kcat amounted to 8 s⁻¹ and the kcat/Km is 166000 M⁻¹ s⁻¹.

B4: DmcN-IIIB (Drosophila melanogaster; F75H/G76N/W121Y) (protein)
chain: MGFDEKREPTGGRLRLQDIPALTQDHCRMRDPAEVERIINEFVIGGPERMQIVSDFDYTITKQRTEDGGAVPSSHNIFNACQSLPENFKAETDKLYHKYRPIEIDPHMPIAEKVQYMIEWYTKSGELTSGFPFDQSEIDQIASKYTHALRDRTHEFFADLQRLGIPTLVFSAGLGNSVVSVLRQANVLHPNVKVVSNFLQFRDGLLDGFQQPMIHTFNKNETVLNETSEYYDLVHTRDHIIVMGDSIGDADMASGVPASSHIMKIGFLFDHVEANMKKYMDTFDIVLVDDQTMDVPRTLLSLIEKQHKLNLEAPKQSSL
notes: as for B2
Turning to B4, in series [4] (variant HNWY), the Km stood at 11 µM, the kcat was 0.5 s⁻¹ and the kcat/Km is 49500 M⁻¹ s⁻¹. Besides, in series [5] (variant HNWY), the Km stood at 315 µM, the kcat is 9 s⁻¹ and the kcat/Km stood at 28800 M⁻¹ s⁻¹.

B5: DmcN-IIIB (Drosophila melanogaster; F75H) (protein)
chain: MGFDEKREPTGGRLRLQDIPALTQDHCRMRDPAEVERIINEFVIGGPERMQIVSDFDYTITKQRTEDGGAVPSSHGIFNACQSLPENFKAETDKLYHKYRPIEIDPHMPIAEKVQYMIEWWTKSGELTSGFPFDQSEIDQIASKYTHALRDRTHEFFADLQRLGIPTLVFSAGLGNSVVSVLRQANVLHPNVKVVSNFLQFRDGLLDGFQQPMIHTFNKNETVLNETSEYYDLVHTRDHIIVMGDSIGDADMASGVPASSHIMKIGFLFDHVEANMKKYMDTFDIVLVDDQTMDVPRTLLSLIEKQHKLNLEAPKQSSL
notes: as for B2
With B5, in series [4] (variant HGWW), the Km was 40 µM, the kcat was found to be 4.2 s⁻¹ and the specificity constant (kcat/Km) was found to be 106000 M⁻¹ s⁻¹. For the same molecule, in series [5] (variant HGWW), the Km is 490 µM, the kcat is 8 s⁻¹ and the kcat/Km is 16000 M⁻¹ s⁻¹.

B6: DmcN-IIIB (Drosophila melanogaster; G76N/W121Y) (protein)
chain: MGFDEKREPTGGRLRLQDIPALTQDHCRMRDPAEVERIINEFVIGGPERMQIVSDFDYTITKQRTEDGGAVPSSFNIFNACQSLPENFKAETDKLYHKYRPIEIDPHMPIAEKVQYMIEWYTKSGELTSGFPFDQSEIDQIASKYTHALRDRTHEFFADLQRLGIPTLVFSAGLGNSVVSVLRQANVLHPNVKVVSNFLQFRDGLLDGFQQPMIHTFNKNETVLNETSEYYDLVHTRDHIIVMGDSIGDADMASGVPASSHIMKIGFLFDHVEANMKKYMDTFDIVLVDDQTMDVPRTLLSLIEKQHKLNLEAPKQSSL
notes: as for B2
With B6, in series [4] (variant FNWY), the Km is reported as 8 µM, the kcat is 0.3 s⁻¹ and the specificity constant (kcat/Km) was 37800 M⁻¹ s⁻¹.

B7: DmcN-IIIB (Drosophila melanogaster; W121Y) (protein)
chain: MGFDEKREPTGGRLRLQDIPALTQDHCRMRDPAEVERIINEFVIGGPERMQIVSDFDYTITKQRTEDGGAVPSSFGIFNACQSLPENFKAETDKLYHKYRPIEIDPHMPIAEKVQYMIEWYTKSGELTSGFPFDQSEIDQIASKYTHALRDRTHEFFADLQRLGIPTLVFSAGLGNSVVSVLRQANVLHPNVKVVSNFLQFRDGLLDGFQQPMIHTFNKNETVLNETSEYYDLVHTRDHIIVMGDSIGDADMASGVPASSHIMKIGFLFDHVEANMKKYMDTFDIVLVDDQTMDVPRTLLSLIEKQHKLNLEAPKQSSL
notes: as for B2
Consider B7, for which, in series [5] (variant FGWY), the Km is 14 µM, the kcat turned out to be 6 s⁻¹ and the kcat/Km was 410000 M⁻¹ s⁻¹.

B8: DmcN-IIIB (Drosophila melanogaster; F75H/W121Y) (protein)
chain: MGFDEKREPTGGRLRLQDIPALTQDHCRMRDPAEVERIINEFVIGGPERMQIVSDFDYTITKQRTEDGGAVPSSHGIFNACQSLPENFKAETDKLYHKYRPIEIDPHMPIAEKVQYMIEWYTKSGELTSGFPFDQSEIDQIASKYTHALRDRTHEFFADLQRLGIPTLVFSAGLGNSVVSVLRQANVLHPNVKVVSNFLQFRDGLLDGFQQPMIHTFNKNETVLNETSEYYDLVHTRDHIIVMGDSIGDADMASGVPASSHIMKIGFLFDHVEANMKKYMDTFDIVLVDDQTMDVPRTLLSLIEKQHKLNLEAPKQSSL
notes: as for B2
In the case of B8, in series [4] (variant HGWY), the Km worked out at 2 µM, the kcat was 1.5 s⁻¹ and the kcat/Km turned out to be 755000 M⁻¹ s⁻¹. In addition, in series [5] (variant HGWY), the Km is 93 µM, the kcat came to 3 s⁻¹ and the catalytic efficiency (kcat/Km) stood at 32500 M⁻¹ s⁻¹.
